Experiments:
[1] = target: recombinant tetranectin (TN) (human) (UniProt P05452); test: SPR (BIAcore), TN immobilized on CM5 chip, HMGB1 as analyte at various concentrations; apparent Kd
[2] = target: recombinant tetranectin (TN) (human) (UniProt P05452); test: BIAcore SPR; recombinant TN immobilized on the sensor chip, HMGB1 as analyte at 31, 62, 125, 250, 500 and 1000 nM

Chain of recombinant tetranectin (TN) (human) (P05452 22-202): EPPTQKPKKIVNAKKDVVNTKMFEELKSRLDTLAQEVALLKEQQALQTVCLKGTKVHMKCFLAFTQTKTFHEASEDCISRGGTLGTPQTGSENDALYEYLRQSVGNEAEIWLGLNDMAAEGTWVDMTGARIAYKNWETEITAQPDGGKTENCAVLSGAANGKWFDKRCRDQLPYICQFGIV

Kd [1]: 570 nM
Kd [2]: 520 nM
Substance: high mobility group box-1 (HMGB1) protein

Source: patent US20200190159A1
